The results in this text go back to patent US20250074980A1 (BRIGHAM AND WOMEN S HOSPITAL, published 2025).

Numbering of substitutions follows the chain as printed. Names and notes keep the numbering of the source.

Experiment [1] has as its target T1, CEACAM6 on transfected HeLa cells (human, UniProt P40199 35-320).
T1 construct: whole, on cells; also called HeLa-CEACAM6; HeLa C6
T1 sequence (looked up): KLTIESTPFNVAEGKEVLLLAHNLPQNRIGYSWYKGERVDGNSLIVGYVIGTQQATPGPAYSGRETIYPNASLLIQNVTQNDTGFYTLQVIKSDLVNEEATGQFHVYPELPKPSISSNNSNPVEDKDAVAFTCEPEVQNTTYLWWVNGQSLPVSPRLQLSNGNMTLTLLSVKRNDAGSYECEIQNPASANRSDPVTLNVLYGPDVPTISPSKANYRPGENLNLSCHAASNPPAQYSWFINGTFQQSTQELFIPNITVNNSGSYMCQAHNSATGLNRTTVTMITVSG
The experiment in a line: flow cytometry, HeLa-CEACAM6 transfectants, % positive cells. How it is done:
Binding selectivity for CEACAM1 was tested for the 24 humanized antibody variants that bound to CEACAM1 (see Table 3), as well as the chimeric control antibody VH0/Vκ0, by flow cytometry on HeLa cells transfected with CEACAM1, 3, 5, 6 and 8. […] There was no evidence of any staining of the HeLa-CEACAM3 or HeLa-CEACAM8 transfectants. […] Due to its favorable affinity to and selectivity for CEACAM1 as well as its favorable expression level, VH1/Vκ8 was chosen as the framework for affinity maturation.

The target in experiment [2] is T2, His-tagged CEACAM1 (human, UniProt P13688 35-428).
T2 construct: 45 kDa SPR analyte; also called CEACAM1-HIS; CEACAM1 analyte
T2 sequence: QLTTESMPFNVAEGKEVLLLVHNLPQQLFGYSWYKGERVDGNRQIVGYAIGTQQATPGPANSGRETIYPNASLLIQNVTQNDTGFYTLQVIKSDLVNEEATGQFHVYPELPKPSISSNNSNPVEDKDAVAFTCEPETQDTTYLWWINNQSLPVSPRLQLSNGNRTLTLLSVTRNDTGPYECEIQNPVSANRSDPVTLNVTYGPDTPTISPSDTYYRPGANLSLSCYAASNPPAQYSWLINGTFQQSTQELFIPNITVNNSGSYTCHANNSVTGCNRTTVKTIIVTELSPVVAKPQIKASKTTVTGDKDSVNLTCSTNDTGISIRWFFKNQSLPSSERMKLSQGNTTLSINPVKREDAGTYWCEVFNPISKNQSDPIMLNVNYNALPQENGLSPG
Kind of experiment: SPR multi-cycle, IgG captured. How it is done: (§1) As an alternative approach to assess the binding of the 36 antibody combinations and the three control antibodies to CEACAM1, a kinetic analysis was performed on a Biacore T200 (serial no. 1909913) running Biacore T200 Evaluation Software V2.0.1 (Uppsala, Sweden). All experiments were run at 25° C. with HBS-P+ running buffer (pH 7.4) (GE Healthcare, cat. no. BR100671). All kinetic experiments were performed using His-tagged CEACAM1 as the analyte. For all experiments, antibodies were immobilized onto a Series S Protein A sensor chip surface. For kinetic experiments, the amount of immobilized/captured ligand was limited to avoid mass transfer effects at the surface of the chip with the surface ideally having an analyte binding level (Rₘₐₓ) of 50-150 RUs. Using a MW of 45 kDa for the CEACAM1 analyte, 150 kDa for the antibody ligand (estimated value for IgG), 50 RU for Rmax and the stoichiometry (Sm) as 2 due to the ability of each antibody to bind 2 target molecules, a target response level of ˜75 RUs was set for capture of all the sample antibodies.
The signal from the reference channel Fc1 was subtracted from that of Fc2, Fc3 and Fc4 to correct for differences in non-specific binding to a reference surface, a global Rmax parameter was used in the 1-to-1 binding model. The relative Kp compared to […] was calculated by dividing the Kp of the humanized CEACAM antibody variants by that of the chimeric antibody VH0/Vκ0 on the same chip. A summary of the averaged relative Kp obtained for the 12 antibody combinations analyzed using multi cycle kinetics can be found in Table 5.

Experiment [3] deals with T2, His-tagged CEACAM1. The experiment in a line: SPR single-cycle, IgG captured. How it is done:
as §1
Single cycle analysis of the 36 antibody combinations and the three control antibodies was performed on purified antibodies (Vκ1 to Vκ6 variants) or on the supernatants of the transiently transfected HEK EBNA cells (Vκ7 to Vκ12 variants). In some instances, where supernatant was not available, purified chimeric antibody VH0/Vκ0 was spiked into HEK EBNA culture medium to use as a positive control. Antibodies were diluted in HBS-P+ to a concentration of 1 μg/ml (as determined by an IgG quantitation ELISA). At the start of each cycle, antibodies were loaded onto Fc2, Fc3 and Fc4 of a protein A chip and IgG captured at a flow rate of 8 μl/min to give an RU of ˜75. The surface was then allowed to stabilize. Single cycle kinetic data was obtained at a flow rate of 50 μl/min to minimize any potential mass transfer effects. Multiple repeats of the chimeric antibody VH0/Vκ0 were performed to check the stability of the surface and analyte over the kinetic cycles. The signal from the reference channel Fc1 (no antibody) was subtracted from that of Fc2, Fc3 and Fc4 to correct for differences in non-specific binding to a reference surface. A 5 point 2-fold dilution range from 3.125 to 50 nM CEACAM1 without regeneration between each concentration was used.

Experiment [4] deals with T3, CEACAM8 on transfected HeLa cells (human, UniProt P31997 35-320).
T3 construct: whole, on cells; also called HeLa-CEACAM8; HeLa C8
T3 sequence (looked up): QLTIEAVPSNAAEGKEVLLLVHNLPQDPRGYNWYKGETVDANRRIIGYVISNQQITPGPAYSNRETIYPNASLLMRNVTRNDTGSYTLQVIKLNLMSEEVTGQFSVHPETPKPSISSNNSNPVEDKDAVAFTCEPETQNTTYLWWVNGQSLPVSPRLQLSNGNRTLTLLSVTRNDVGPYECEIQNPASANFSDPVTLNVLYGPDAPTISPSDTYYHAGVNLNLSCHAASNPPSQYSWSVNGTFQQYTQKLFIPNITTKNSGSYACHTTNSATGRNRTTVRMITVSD
Kind of experiment: flow cytometry, transfected HeLa. In short, it runs like this:
(§2)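 Binding selectivity was assessed by flow cytometry and is expressed as the staining of each HeLa transfectant, each stably carrying a single CEACAM family member. The cells were kept at 37° C, 5.0% CO₂ in DMEM containing 10% fetal bovine serum. Staining used the test antibody followed by a fluorochrome-conjugated isotype-specific secondary antibody, and DAPI marked viability.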

The target in experiment [5] is T4, CEACAM3 on transfected HeLa cells (human, UniProt P40198 35-252).
T4 construct: whole, on cells; also called HeLa-CEACAM3; HeLa C3
T4 sequence (looked up): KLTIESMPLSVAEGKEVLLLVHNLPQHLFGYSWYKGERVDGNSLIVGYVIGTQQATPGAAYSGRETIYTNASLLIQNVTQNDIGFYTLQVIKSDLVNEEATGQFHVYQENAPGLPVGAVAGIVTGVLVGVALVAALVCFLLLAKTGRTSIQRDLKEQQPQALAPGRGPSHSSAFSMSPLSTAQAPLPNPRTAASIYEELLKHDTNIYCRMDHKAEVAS
The experiment in a line: flow cytometry, transfected HeLa. In short, it runs like this: as §2

B1: VH1/Vκ2 (antibody, IgG4, V domains shown)
VH: EVQLLESGGGLVQPGGSLRLSCAASGFIFSSHGMSWVRQAPGKGLEWVATISSGGTYTYYPDSVKGRFTISRDNSKNTLYLQMNSLKAEDTAMYYCARHDFDYDAAWFAYWGQGTLVTVSS
VL: EIVLTQSPATLSLSPGERATLSCRANSSVSYMYWYQQKPGQAPRPWIYLTSNRATGVPARFSGSGSGTDYTLTISSLEPEDFATYYCQQWSSNPPTFGQGTKLEIK
notes: IgG4 (S241P), kappa
Consider B1, for which, in experiment [1], the binding result is given as “no binding”. Besides, in the experiment with His-tagged CEACAM1 [2], the Kd came to 190 nM, the “average relative KD to VH0/Vκ0” value was determined as 3.4, the off-rate constant (koff) was determined as 0.0503 s⁻¹ and the kon came out at 265000 M⁻¹ s⁻¹. Further, the “relative KD to VH0/Vκ0” value in the experiment with His-tagged CEACAM1 [2] was found to be 3.4. Further, in the experiment with His-tagged CEACAM1 [3], the dissociation constant (Kd) was 134 nM and the “relative KD to VH0/Vκ0” value stood at 3.2. For the same molecule, the binding result in experiment [4] is listed as “no binding”. The binding result in experiment [5] is recorded as “no binding”.

B2: VH2/Vκ2 (antibody, IgG4, V domains shown)
VH: B1 VH with K87R
VL: B1 VL
notes: IgG4 (S241P), kappa
In the case of B2, the binding result in experiment [1], in experiment [4] and in experiment [5] was “no binding” each time. Further, the dissociation constant Kd with His-tagged CEACAM1 [3] is 98 nM. Besides, the “relative KD to VH0/Vκ0” value with His-tagged CEACAM1 [3] is 2.3.

B3: VH3/Vκ1 (antibody, IgG4, V domains shown)
VH: B1 VH with P61A, K87R
VL: B1 VL with E1Q, T10L, L21M, R24S, Q36R, R44K, R53L, T55S, P79A
notes: IgG4 (S241P), kappa
With B3, the binding result in experiment [1], in experiment [4] and in experiment [5] was “no binding” in each case. Besides, in the experiment with His-tagged CEACAM1 [3], the Kd turned out to be 135 nM. For the same molecule, the “relative KD to VH0/Vκ0” value with His-tagged CEACAM1 [3] is 3.2.

B4: VH2/Vκ1 (antibody, IgG4, V domains shown)
VH: B1 VH with K87R
VL: B1 VL with E1Q, T10L, L21M, R24S, Q36R, R44K, R53L, T55S, P79A
notes: IgG4 (S241P), kappa
For the molecule B4, the binding result in experiment [1], in experiment [4] and in experiment [5] was “no binding” throughout. In addition, in the experiment with His-tagged CEACAM1 [3], the Kd amounted to 113 nM. In addition, in the experiment with His-tagged CEACAM1 [3], the “relative KD to VH0/Vκ0” value worked out at 2.7.

B5: VH4/Vκ2 (antibody, IgG4, V domains shown)
VH: B1 VH with A49S, P61A, K87R, M93V
VL: B1 VL
notes: IgG4 (S241P), kappa
As to B5, the binding result in experiment [1], in experiment [4] and in experiment [5] was “no binding” throughout. The Kd with His-tagged CEACAM1 [3] turned out to be 74 nM. Besides, the “relative KD to VH0/Vκ0” value with His-tagged CEACAM1 [3] turned out to be 1.8.

B6: VH3/Vκ2 (antibody, IgG4, V domains shown)
VH: B1 VH with P61A, K87R
VL: B1 VL
notes: IgG4 (S241P), kappa
As to B6, the binding result in experiment [1], in experiment [4] and in experiment [5] was “no binding” each time. Further, in the experiment with His-tagged CEACAM1 [3], the Kd stood at 103 nM. Besides, the “relative KD to VH0/Vκ0” value in the experiment with His-tagged CEACAM1 [3] was determined as 2.5.

B7: VH1/Vκ11 (antibody, IgG4, V domains shown)
VH: B1 VH
VL: B1 VL with V57I, T84V
notes: IgG4 (S241P), kappa
In the case of B7, the binding result in experiment [1], in experiment [4] and in experiment [5] was “no binding” throughout. Besides, the Kd in the experiment with His-tagged CEACAM1 [3] amounted to 143 nM. In addition, the “relative KD to VH0/Vκ0” value with His-tagged CEACAM1 [3] came out at 3.5.

B8: VH2/Vκ4 (antibody, IgG4, V domains shown)
VH: B1 VH with K87R
VL: B1 VL with V57I
notes: IgG4 (S241P), kappa
Turning to B8, the binding result in experiment [1], in experiment [4] and in experiment [5] was “no binding” in each case. The dissociation constant (Kd) with His-tagged CEACAM1 [3] came out at 103 nM. Besides, in the experiment with His-tagged CEACAM1 [3], the “relative KD to VH0/Vκ0” value was determined as 2.5.

B9: VH4/Vκ1 (antibody, IgG4, V domains shown)
VH: B1 VH with A49S, P61A, K87R, M93V
VL: B1 VL with E1Q, T10L, L21M, R24S, Q36R, R44K, R53L, T55S, P79A
notes: IgG4 (S241P), kappa
In the case of B9, the binding result in experiment [1], in experiment [4] and in experiment [5] was “no binding” each time. For the same molecule, the Kd with His-tagged CEACAM1 [3] stood at 99 nM. The “relative KD to VH0/Vκ0” value in the experiment with His-tagged CEACAM1 [3] worked out at 2.4.

B10: VH4/Vκ4 (antibody, IgG4, V domains shown)
VH: B1 VH with A49S, P61A, K87R, M93V
VL: B1 VL with V57I
notes: IgG4 (S241P), kappa
For B10, the binding result in experiment [1], in experiment [4] and in experiment [5] was “no binding” in each case. In addition, the equilibrium dissociation constant (Kd) with His-tagged CEACAM1 [3] turned out to be 120 nM. The “relative KD to VH0/Vκ0” value with His-tagged CEACAM1 [3] was 2.9.

B11: VH3/Vκ4 (antibody, IgG4, V domains shown)
VH: B1 VH with P61A, K87R
VL: B1 VL with V57I
notes: IgG4 (S241P), kappa
For B11, the binding result in experiment [1], in experiment [4] and in experiment [5] was “no binding” each time. Further, in the experiment with His-tagged CEACAM1 [3], the Kd was 81 nM. Moreover, the “relative KD to VH0/Vκ0” value in the experiment with His-tagged CEACAM1 [3] turned out to be 1.9.
